Data as given in paper PMC12847411.
pKd: −log10 of the molar value.

Columns and labels:
Test in all cases: BLI
AZD8895-25 = target: AZD8895-25
AZD8895-275 = target: AZD8895-275
AZD8895-450 = target: AZD8895-450
AZD8895 = target: AZD8895
MW05 = target: MW05
REGN10933 = target: REGN10933
REGN10987 = target: REGN10987
Sotrovimab = target: Sotrovimab

Sequence of AZD8895-25 (heavy, as listed by the source, chain 1 of 2): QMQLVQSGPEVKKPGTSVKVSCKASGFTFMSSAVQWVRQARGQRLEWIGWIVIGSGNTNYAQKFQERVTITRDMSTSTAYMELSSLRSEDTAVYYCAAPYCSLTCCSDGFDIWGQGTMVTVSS
Sequence of AZD8895-25 (light, as listed by the source, chain 2 of 2): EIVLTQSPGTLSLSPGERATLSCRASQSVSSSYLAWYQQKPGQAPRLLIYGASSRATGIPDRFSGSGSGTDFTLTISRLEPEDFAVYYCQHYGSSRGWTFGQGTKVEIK
Sequence of REGN10987 (heavy, as listed by the source, chain 1 of 2): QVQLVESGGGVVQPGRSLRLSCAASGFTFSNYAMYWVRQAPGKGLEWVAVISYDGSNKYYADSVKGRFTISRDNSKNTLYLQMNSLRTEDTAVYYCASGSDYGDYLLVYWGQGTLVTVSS
Sequence of REGN10987 (light, as listed by the source, chain 2 of 2): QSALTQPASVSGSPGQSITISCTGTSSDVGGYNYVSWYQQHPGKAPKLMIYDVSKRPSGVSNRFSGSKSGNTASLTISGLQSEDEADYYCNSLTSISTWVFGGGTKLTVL
Sequence of REGN10933 (heavy, as listed by the source, chain 1 of 2): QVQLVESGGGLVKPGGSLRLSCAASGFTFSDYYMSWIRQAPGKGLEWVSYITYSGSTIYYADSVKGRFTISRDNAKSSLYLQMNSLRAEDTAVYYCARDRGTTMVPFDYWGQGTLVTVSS
Sequence of REGN10933 (light, as listed by the source, chain 2 of 2): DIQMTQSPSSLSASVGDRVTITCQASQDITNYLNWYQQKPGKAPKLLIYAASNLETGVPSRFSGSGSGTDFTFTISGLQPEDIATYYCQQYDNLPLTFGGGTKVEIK
Sequence of AZD8895-275 (heavy, as listed by the source, chain 1 of 2): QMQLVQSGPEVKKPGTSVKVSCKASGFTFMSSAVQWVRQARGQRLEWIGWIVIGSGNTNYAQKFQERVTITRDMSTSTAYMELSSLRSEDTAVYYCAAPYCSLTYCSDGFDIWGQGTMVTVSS
Sequence of AZD8895 (heavy, as listed by the source, chain 1 of 2): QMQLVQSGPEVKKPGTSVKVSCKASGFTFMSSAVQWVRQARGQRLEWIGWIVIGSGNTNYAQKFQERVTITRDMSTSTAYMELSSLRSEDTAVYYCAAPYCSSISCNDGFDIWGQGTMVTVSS
Sequence of MW05 (light, as listed by the source): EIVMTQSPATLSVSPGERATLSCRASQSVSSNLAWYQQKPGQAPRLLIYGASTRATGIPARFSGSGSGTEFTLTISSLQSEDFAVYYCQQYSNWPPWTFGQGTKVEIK
Sequence of AZD8895-450 (heavy, as listed by the source, chain 1 of 2): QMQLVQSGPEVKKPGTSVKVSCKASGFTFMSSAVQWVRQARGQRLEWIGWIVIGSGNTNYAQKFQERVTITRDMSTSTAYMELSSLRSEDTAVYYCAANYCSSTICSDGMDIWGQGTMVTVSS

Q: With “SARS-CoV-2 spike RBD protein (Sino Biological, 40592-V08H) (from UniProt P0DTC2) (domain or fragment)” as the substance, how does the pKd (AZD8895-25) read?
A: 8.32

Q: What about the pKd (AZD8895-275) of the same substance?
A: 8.29

Q: What about the pKd (AZD8895-450) of the same substance?
A: 8.13

Q: And the pKd (AZD8895)?
A: 8.17

Q: And the pKd (MW05)?
A: 8.72

Q: And the pKd (REGN10933)?
A: 8.17

Q: What about the pKd (REGN10987) of the same substance?
A: 8.23

Q: And the pKd (Sotrovimab)?
A: 8.85
